The values that follow come from PMC5065780.

The series deals with VP35 IID (interferon inhibitory domain) (Ebola virus, UniProt X5GXU1 215-340). Kind of series: EMSA. On the technique in general: Mobility shift assays separate free from complexed probe on a gel.

B1: 10 bp dsRNA probe (dsRNA)
RNA 1: CACUGCGACC
RNA 2: GGUCGCAGUG
On to B1, for which the binding result was “binds”.
